This note sets out measurements from patent publication US20150329642A1 (Genmab, published 2015).

In assay [1] the target is T1, cMetECDHis (human, UniProt P08581 25-932, limits assumed, biotinylated in the cross-block ELISA of Example 17).
T1 construct: Expressed in HEK-293F cells; also called soluble cMetECDHis; biotinylated cMetECDHis
The experiment in a line: cross-block ELISA; competitor 024. As for the experimental part: (§1) First, the optimal coating concentrations of the tested anti-c-Met antibodies and the optimal cMetECDHis concentration were determined. Therefore, ELISA wells were coated overnight at 4° C. with anti-c-Met HuMabs serially diluted in PBS (8 μg/mL in 2-fold dilutions). Next, the ELISA wells were washed with PBST (PBS supplemented with 0.05% Tween-20 [Sigma-Aldrich, Zwijndrecht, The Netherlands]) and blocked for one hour at room temperature (RT) with PBSTC (PBST supplemented 2% [v/v] chicken serum [Gibco, Paisley, Scotland]). Subsequently, the ELISA wells were washed with PBST and incubated for one hour at RT with biotinylated cMetECDHis serially diluted in PBSTC (1 μg/mL in 2-fold dilutions). Unbound biotinylated cMetECDHis was washed away with PBST, and bound biotinylated cMetECDHis was incubated for one hour at RT with 0.1 μg/mL Streptavidin-poly-HRP (Sanquin, Amsterdam, The Netherlands) diluted in PBST.
(§2) ELISA wells were coated with anti-c-Met antibody at a sub-optimal dose as described above. After blocking of the ELISA wells, they were incubated with the predetermined concentration of biotinylated cMetECDHis in the presence of an excess of anti-c-Met antibody. The reaction was developed as described above. Residual binding was expressed as a percentage relative to the binding observed in the absence of competitor antibody.
(In general: An ELISA detects its analyte on a solid surface through an enzyme-linked reagent.)

Assay [2] has as its target T1, cMetECDHis. The assay can be described thus: cross-block ELISA; competitor 064. As for the experimental part:
as §1, §2

The target in assay [3] is T1, cMetECDHis. The assay can be described thus: cross-block ELISA; competitor 181. As for the experimental part: as §1, §2
Assay [4] addresses T1, cMetECDHis. The assay can be described thus: BLI (Octet); antibody captured, cMetECDHis in solution. As for the experimental part:
Antibody binding to cMetECDHis was analyzed by means of Bio-Layer Interferometry (BLI) technology on the Octet System (Fortebio, Menlo Park, USA). Anti-human IgG coated biosensors (Fc-specific) were used to capture anti-c-Met antibodies according to the procedure recommended by the manufacturer. cMetECDHis derived from HEK293 cells was loaded on top of the immobilized anti-c-Met antibodies by placing the loaded biosensor into a well containing 10 μg/mL cMetECDHis diluted in 10 times diluted kinetics buffer (Fortebio). The difference in reflection of light (AA, nm) of the biosensor surface due to the binding of cMetECDHis was measured in real time during approximately 10 minutes and was used by the Octet software (V4.0, Fortebio) to calculate the association constant (kₐ [1/M×s]). Next, the loaded biosensor was placed into a well containing only kinetics buffer (10 times diluted in PBS) to determine the dissociation constant (kd [1/s]). Kinetics analysis was performed to determine the affinity (KD [M]) using model 1:1 (langmuir). As a positive control, 0.2 μg/mL 5D5 IgG1 produced in HEK293 cells, was used.
On the technique in general: In BLI a coated tip is dipped into the sample, and binding shifts an interference pattern.

Assay [5] has as its target T1, cMetECDHis. The assay can be described thus: cross-block ELISA; competitor 101. As for the experimental part: as §1, §2
The target in assay [6] is T1, cMetECDHis. The assay can be described thus: cross-block ELISA; competitor 022. As for the experimental part:
as §1, §2

Assay [7] has as its target T1, cMetECDHis. The assay can be described thus: cross-block ELISA; competitor 098. As for the experimental part: as §1, §2
Assay [8] has as its target T1, cMetECDHis. The assay can be described thus: cross-block ELISA; competitor 062. As for the experimental part: as §1, §2
Assay [9] deals with T1, cMetECDHis. The assay can be described thus: cross-block ELISA; competitor 068. As for the experimental part:
as §1, §2

Assay [10] addresses T1, cMetECDHis. The experiment in a line: cross-block ELISA; competitor 035. As for the experimental part:
as §1, §2

Assay [11] concerns the target T1, cMetECDHis. The assay can be described thus: cross-block ELISA; competitor 008. As for the experimental part: as §1, §2
For assay [12], the target named is T1, cMetECDHis. The assay can be described thus: cross-block ELISA; competitor 5D5. As for the experimental part: as §1, §2
In assay [13] the target is T1, cMetECDHis. The assay can be described thus: cross-block ELISA; competitor 058. As for the experimental part: as §1, §2
Assay [14] addresses T1, cMetECDHis. The experiment in a line: cross-block ELISA; competitor G11-HZ. As for the experimental part:
as §1, §2

Assay [15] concerns the target T1, cMetECDHis. The assay can be described thus: cross-block ELISA; competitor 045. As for the experimental part: as §1, §2
The target of assay [16] is T1, cMetECDHis. The assay can be described thus: cross-block ELISA; competitor 069. As for the experimental part:
as §1, §2

For assay [17], the target named is T1, cMetECDHis. The experiment in a line: cross-block ELISA; competitor 006. As for the experimental part: as §1, §2

B1: IgG1-024 (antibody, V domains shown)
VH: EVQLLESGGGLVQPGGSLRLSCVASGFTFSSYAMSWVRQAPGKGLEWVSAISGSSGGSTYYVDSVKGRFTISRANSKNTLYLQMNSLRAEDTAVYYCAKDLDRGWMGYFGYWGQGTLVTVSS
VL: DIQMTQSPSSVSASVGDRVTITCRASQGISSWLAWYQHKPGKAPKLLIYAASSLQSGVPSRFSGSGSGTDFTLTISSLQPEDFATYYCQQANSFPTFGQGTRLEIK
notes: also called TH1016-024; PC1016-024
With B1, the “residual binding, % of no competitor” value came out at 5.4% in [1]; 2.3% in assay [2]; 7.1% in [3]; 4.8% in [5]; 100% in assay [6]; 10.4% in assay [7]. In addition, the “residual binding, % of no competitor” value in assay [8] stood at 2.3%; in [9], 12%; in assay [10], 108%; in assay [11], 104%; in assay [12], 95.5%; in assay [13], 103%. In addition, the “residual binding, % of no competitor” value in [14] is 98.2%; in assay [15] it was 98.1%; in assay [16], 2.9%; in assay [17] it was 101%. Besides, in assay [4], the Kd (in general, the equilibrium constant for the complex coming apart) turned out to be 1.57 nM. Besides, the koff (commonly a measure of how fast the partners let go of each other) in [4] was 0.000228 s⁻¹. Also, the kon – broadly, the rate constant with which the complex forms – in assay [4] came to 145000 M⁻¹ s⁻¹.

B2: anti-c-Met HuMab 035 (IgG1) (antibody, V domains shown)
VH: EVQLVQSGAEVKKPGESLKISCKGSGYSFTSYWIGWVRQMPGKGLEWMGIIYPGDSDTRYSPSFQGQVTISADKSISTAYLQWNSLKASDTAMYYCARQEITGEFDYWGQGTLVTVSS
VL: AIQLTQSPSSLSASVGDRVTITCRASQGISSALAWYQQKPGKAPKLLIYDASSLESGVPSRFSGSGSGTDFTLTISSLQPEDFATYYCQQFNSYPMYTFGQGTKLEIK
notes: also called P1016-035; TH1016-035-D09
For B2, the “residual binding, % of no competitor” value amounted to 121% in assay [1]; 132% in [2]; 159% in [3]; 113% in assay [5]; 54.6% in [6]; 126% in [7]. Also, the “residual binding, % of no competitor” value in assay [8] was 120%; in assay [9], 175%; in assay [10] it was 10.6%; in assay [11], 7.2%; in assay [12], 25.5%; in assay [13], 18.5%. Moreover, the “residual binding, % of no competitor” value in [14] amounted to 7.8%; in [15] it was 125%; in assay [16] it was 151%; in [17] it was 33%. Further, in [4], the equilibrium dissociation constant (Kd) was determined as 13.9 nM. In assay [4], this molecule registered an off-rate constant (koff) of 0.00368 s⁻¹. In addition, in assay [4], the association rate constant (kon) is 264000 M⁻¹ s⁻¹.

B3: IgG1-1016-069 (antibody, V domains shown)
VH: QVQLVQSGAEVKKPGASVKVSCETSGYTFTSYGISWVRQAPGHGLEWMGWISAYNGYTNYAQKLQGRVTMTTDTSTSTAYMELRSLRSDDTAVYYCARDLRGTNYFDYWGQGTLVTVSS
VL: DIQMTQSPSSVSASVGDRVTITCRASQGISNWLAWFQHKPGKAPKLLIYAASSLLSGVPSRFSGSGSGTDFTLTISSLQPEDFATYYCQQANSFPITFGQGTRLEIK
notes: also called clone 069; TH1016-069
For the molecule B3, the “residual binding, % of no competitor” value in assay [1] stood at 6.6%; in assay [2] it was 2.3%; in [3], 6.3%; in [5], 3.9%; in assay [6], 97.8%; in assay [7] it was 12.5%. Besides, the “residual binding, % of no competitor” value in assay [8] came out at 2.2%; in assay [9], 10.1%; in [10], 91.7%; in assay [11] it was 102%; in assay [12], 99.4%; in assay [13], 101%. The “residual binding, % of no competitor” value in assay [14] stood at 110%; in assay [15], 99.8%; in assay [16], 2.4%; in assay [17] it was 100%. The Kd in assay [4] was 1.26 nM. Further, the koff in [4] was determined as 0.000267 s⁻¹. The molecule further showed a kon in assay [4] of 212000 M⁻¹ s⁻¹.

B4: anti-c-Met HuMab 045 (IgG1) (antibody, V domains shown)
VH: EVQLLESGGGLVQPGGSLRLSCAASGFTFSSYAMSWVRQAPGKGLEWVSVISGSGGITYYADSVKGRFTISRDNSKNTLYLQMNSLRAEDTAVYYCARDRGWGSDYWGQGTLVTVSS
VL: EIVLTQSPATLSLSPGERATLSCRASQSVSSYLAWYQQKPGQAPRLLIYDASNRATGIPARFSGSGSGTDFTLTISSLEPEDFAVYYCQQRSNWPFTFGPGTKVDIK
notes: also called TH1016-045; PC1016-045
For the molecule B4, the “residual binding, % of no competitor” value is 102% in [1]; 104% in assay [2]; 99.4% in assay [3]; 102% in assay [5]; 105% in [6]; 76.4% in assay [7]. Also, the “residual binding, % of no competitor” value was 103% in assay [8]; 113% in assay [9]; 105% in assay [10]; 98.5% in assay [11]; 27.8% in assay [12]; 115% in assay [13]. The “residual binding, % of no competitor” value in assay [14] worked out at 99.3%; in assay [15] it was 21.3%; in assay [16] it was 97%; in [17] it was 111%. The Kd in [4] amounted to 2.87 nM. The koff in assay [4] amounted to 0.00207 s⁻¹. The molecule further had a kon in [4] of 721000 M⁻¹ s⁻¹.
